Target: T1, Human TROP2 Protein, His Tag (Acro Biosystems) (human, UniProt P09758 27-274)
T1 construct: not shown: His tag
T1 sequence (looked up): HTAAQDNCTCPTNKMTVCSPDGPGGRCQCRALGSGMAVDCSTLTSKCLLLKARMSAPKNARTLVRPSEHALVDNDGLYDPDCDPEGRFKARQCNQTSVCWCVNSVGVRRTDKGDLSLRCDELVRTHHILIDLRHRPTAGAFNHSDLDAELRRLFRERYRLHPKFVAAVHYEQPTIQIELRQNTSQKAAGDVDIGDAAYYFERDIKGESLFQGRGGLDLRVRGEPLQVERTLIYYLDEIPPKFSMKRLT
Assay: BLI (Octet)

| Binder | binding result |
| --- | --- |
| MYT12302 (antibody, V domains shown, sacituzumab VH 33, 62 -> H) VH: QVQLQQSGSELKKPGASVKVSCKASGYTFTNYHMNWVKQAPGQGLKWMGWINTYTGEPTYTHDFKGRFAFSLDTSVSTAYLQISSLKADDTAVYFCARGGFGSSYWYFDVWGQGSLVTVSS VL: DIQLTQSPSSLSASVGDRVSITCKASQDVSIAVAWYQQKPGKAPKLLIYSASYRYTGVPDRFSGSGSGTDFTLTISSLQPEDFAVYYCQQHYITPLTFGAGTKVEIK | binds |
| MYT12318 (antibody, V domains shown, sacituzumab VH 63, 66 -> H) VH: QVQLQQSGSELKKPGASVKVSCKASGYTFTNYGMNWVKQAPGQGLKWMGWINTYTGEPTYTDHFKHRFAFSLDTSVSTAYLQISSLKADDTAVYFCARGGFGSSYWYFDVWGQGSLVTVSS VL: DIQLTQSPSSLSASVGDRVSITCKASQDVSIAVAWYQQKPGKAPKLLIYSASYRYTGVPDRFSGSGSGTDFTLTISSLQPEDFAVYYCQQHYITPLTFGAGTKVEIK | binds |
| MYT12342 (antibody, V domains shown, sacituzumab VL 33, 53 -> H) VH: QVQLQQSGSELKKPGASVKVSCKASGYTFTNYGMNWVKQAPGQGLKWMGWINTYTGEPTYTDDFKGRFAFSLDTSVSTAYLQISSLKADDTAVYFCARGGFGSSYWYFDVWGQGSLVTVSS VL: DIQLTQSPSSLSASVGDRVSITCKASQDVSIAHAWYQQKPGKAPKLLIYSASHRYTGVPDRFSGSGSGTDFTLTISSLQPEDFAVYYCQQHYITPLTFGAGTKVEIK | binds |
| MYT12369 (antibody, V domains shown, sacituzumab VL 30, 51, 89 -> H) VH: QVQLQQSGSELKKPGASVKVSCKASGYTFTNYGMNWVKQAPGQGLKWMGWINTYTGEPTYTDDFKGRFAFSLDTSVSTAYLQISSLKADDTAVYFCARGGFGSSYWYFDVWGQGSLVTVSS VL: DIQLTQSPSSLSASVGDRVSITCKASQDVHIAVAWYQQKPGKAPKLLIYSHSYRYTGVPDRFSGSGSGTDFTLTISSLQPEDFAVYYCHQHYITPLTFGAGTKVEIK | binds |
| MYT12347 (antibody, V domains shown, sacituzumab VL 51, 52 -> H) VH: QVQLQQSGSELKKPGASVKVSCKASGYTFTNYGMNWVKQAPGQGLKWMGWINTYTGEPTYTDDFKGRFAFSLDTSVSTAYLQISSLKADDTAVYFCARGGFGSSYWYFDVWGQGSLVTVSS VL: DIQLTQSPSSLSASVGDRVSITCKASQDVSIAVAWYQQKPGKAPKLLIYSHHYRYTGVPDRFSGSGSGTDFTLTISSLQPEDFAVYYCQQHYITPLTFGAGTKVEIK | binds |
| MYT12349 (antibody, V domains shown, sacituzumab VL 51, 89 -> H) VH: QVQLQQSGSELKKPGASVKVSCKASGYTFTNYGMNWVKQAPGQGLKWMGWINTYTGEPTYTDDFKGRFAFSLDTSVSTAYLQISSLKADDTAVYFCARGGFGSSYWYFDVWGQGSLVTVSS VL: DIQLTQSPSSLSASVGDRVSITCKASQDVSIAVAWYQQKPGKAPKLLIYSHSYRYTGVPDRFSGSGSGTDFTLTISSLQPEDFAVYYCHQHYITPLTFGAGTKVEIK | binds |
| MYT12358 (antibody, V domains shown, sacituzumab VL 53, 89 -> H) VH: QVQLQQSGSELKKPGASVKVSCKASGYTFTNYGMNWVKQAPGQGLKWMGWINTYTGEPTYTDDFKGRFAFSLDTSVSTAYLQISSLKADDTAVYFCARGGFGSSYWYFDVWGQGSLVTVSS VL: DIQLTQSPSSLSASVGDRVSITCKASQDVSIAVAWYQQKPGKAPKLLIYSASHRYTGVPDRFSGSGSGTDFTLTISSLQPEDFAVYYCHQHYITPLTFGAGTKVEIK | binds |
| MYT12320 (antibody, V domains shown, sacituzumab VH 64, 66 -> H) VH: QVQLQQSGSELKKPGASVKVSCKASGYTFTNYGMNWVKQAPGQGLKWMGWINTYTGEPTYTDDHKHRFAFSLDTSVSTAYLQISSLKADDTAVYFCARGGFGSSYWYFDVWGQGSLVTVSS VL: DIQLTQSPSSLSASVGDRVSITCKASQDVSIAVAWYQQKPGKAPKLLIYSASYRYTGVPDRFSGSGSGTDFTLTISSLQPEDFAVYYCQQHYITPLTFGAGTKVEIK | binds |
| MYT12319 (antibody, V domains shown, sacituzumab VH 64, 65 -> H) VH: QVQLQQSGSELKKPGASVKVSCKASGYTFTNYGMNWVKQAPGQGLKWMGWINTYTGEPTYTDDHHGRFAFSLDTSVSTAYLQISSLKADDTAVYFCARGGFGSSYWYFDVWGQGSLVTVSS VL: DIQLTQSPSSLSASVGDRVSITCKASQDVSIAVAWYQQKPGKAPKLLIYSASYRYTGVPDRFSGSGSGTDFTLTISSLQPEDFAVYYCQQHYITPLTFGAGTKVEIK | binds |
| MYT12373 (antibody, V domains shown, sacituzumab VL 30, 89, 93 -> H) VH: QVQLQQSGSELKKPGASVKVSCKASGYTFTNYGMNWVKQAPGQGLKWMGWINTYTGEPTYTDDFKGRFAFSLDTSVSTAYLQISSLKADDTAVYFCARGGFGSSYWYFDVWGQGSLVTVSS VL: DIQLTQSPSSLSASVGDRVSITCKASQDVHIAVAWYQQKPGKAPKLLIYSASYRYTGVPDRFSGSGSGTDFTLTISSLQPEDFAVYYCHQHYHTPLTFGAGTKVEIK | binds |
| MYT12310 (antibody, V domains shown, sacituzumab VH 60, 65 -> H) VH: QVQLQQSGSELKKPGASVKVSCKASGYTFTNYGMNWVKQAPGQGLKWMGWINTYTGEPTHTDDFHGRFAFSLDTSVSTAYLQISSLKADDTAVYFCARGGFGSSYWYFDVWGQGSLVTVSS VL: DIQLTQSPSSLSASVGDRVSITCKASQDVSIAVAWYQQKPGKAPKLLIYSASYRYTGVPDRFSGSGSGTDFTLTISSLQPEDFAVYYCQQHYITPLTFGAGTKVEIK | binds |
| MYT12343 (antibody, V domains shown, sacituzumab VL 33, 89 -> H) VH: QVQLQQSGSELKKPGASVKVSCKASGYTFTNYGMNWVKQAPGQGLKWMGWINTYTGEPTYTDDFKGRFAFSLDTSVSTAYLQISSLKADDTAVYFCARGGFGSSYWYFDVWGQGSLVTVSS VL: DIQLTQSPSSLSASVGDRVSITCKASQDVSIAHAWYQQKPGKAPKLLIYSASYRYTGVPDRFSGSGSGTDFTLTISSLQPEDFAVYYCHQHYITPLTFGAGTKVEIK | binds |
| MYT12348 (antibody, V domains shown, sacituzumab VL 51, 53 -> H) VH: QVQLQQSGSELKKPGASVKVSCKASGYTFTNYGMNWVKQAPGQGLKWMGWINTYTGEPTYTDDFKGRFAFSLDTSVSTAYLQISSLKADDTAVYFCARGGFGSSYWYFDVWGQGSLVTVSS VL: DIQLTQSPSSLSASVGDRVSITCKASQDVSIAVAWYQQKPGKAPKLLIYSHSHRYTGVPDRFSGSGSGTDFTLTISSLQPEDFAVYYCQQHYITPLTFGAGTKVEIK | binds |
| MYT12354 (antibody, V domains shown, sacituzumab VL 52, 89 -> H) VH: QVQLQQSGSELKKPGASVKVSCKASGYTFTNYGMNWVKQAPGQGLKWMGWINTYTGEPTYTDDFKGRFAFSLDTSVSTAYLQISSLKADDTAVYFCARGGFGSSYWYFDVWGQGSLVTVSS VL: DIQLTQSPSSLSASVGDRVSITCKASQDVSIAVAWYQQKPGKAPKLLIYSAHYRYTGVPDRFSGSGSGTDFTLTISSLQPEDFAVYYCHQHYITPLTFGAGTKVEIK | binds |
| MYT12368 (antibody, V domains shown, sacituzumab VL 30, 51, 53 -> H) VH: QVQLQQSGSELKKPGASVKVSCKASGYTFTNYGMNWVKQAPGQGLKWMGWINTYTGEPTYTDDFKGRFAFSLDTSVSTAYLQISSLKADDTAVYFCARGGFGSSYWYFDVWGQGSLVTVSS VL: DIQLTQSPSSLSASVGDRVSITCKASQDVHIAVAWYQQKPGKAPKLLIYSHSHRYTGVPDRFSGSGSGTDFTLTISSLQPEDFAVYYCQQHYITPLTFGAGTKVEIK | binds |
| MYT12306 (antibody, V domains shown, sacituzumab VH 33, 66 -> H) VH: QVQLQQSGSELKKPGASVKVSCKASGYTFTNYHMNWVKQAPGQGLKWMGWINTYTGEPTYTDDFKHRFAFSLDTSVSTAYLQISSLKADDTAVYFCARGGFGSSYWYFDVWGQGSLVTVSS VL: DIQLTQSPSSLSASVGDRVSITCKASQDVSIAVAWYQQKPGKAPKLLIYSASYRYTGVPDRFSGSGSGTDFTLTISSLQPEDFAVYYCQQHYITPLTFGAGTKVEIK | binds |
| MYT12367 (antibody, V domains shown, sacituzumab VL 92, 93 -> H) VH: QVQLQQSGSELKKPGASVKVSCKASGYTFTNYGMNWVKQAPGQGLKWMGWINTYTGEPTYTDDFKGRFAFSLDTSVSTAYLQISSLKADDTAVYFCARGGFGSSYWYFDVWGQGSLVTVSS VL: DIQLTQSPSSLSASVGDRVSITCKASQDVSIAVAWYQQKPGKAPKLLIYSASYRYTGVPDRFSGSGSGTDFTLTISSLQPEDFAVYYCQQHHHTPLTFGAGTKVEIK | binds |
| MYT12346 (antibody, V domains shown, sacituzumab VL 33, 93 -> H) VH: QVQLQQSGSELKKPGASVKVSCKASGYTFTNYGMNWVKQAPGQGLKWMGWINTYTGEPTYTDDFKGRFAFSLDTSVSTAYLQISSLKADDTAVYFCARGGFGSSYWYFDVWGQGSLVTVSS VL: DIQLTQSPSSLSASVGDRVSITCKASQDVSIAHAWYQQKPGKAPKLLIYSASYRYTGVPDRFSGSGSGTDFTLTISSLQPEDFAVYYCQQHYHTPLTFGAGTKVEIK | binds |
| MYT12370 (antibody, V domains shown, sacituzumab VL 30, 51, 93 -> H) VH: QVQLQQSGSELKKPGASVKVSCKASGYTFTNYGMNWVKQAPGQGLKWMGWINTYTGEPTYTDDFKGRFAFSLDTSVSTAYLQISSLKADDTAVYFCARGGFGSSYWYFDVWGQGSLVTVSS VL: DIQLTQSPSSLSASVGDRVSITCKASQDVHIAVAWYQQKPGKAPKLLIYSHSYRYTGVPDRFSGSGSGTDFTLTISSLQPEDFAVYYCQQHYHTPLTFGAGTKVEIK | binds |

Source: patent publication US20260274985A1 (MYTHIC THERAPEUTICS, published 2026)
